Test results: article PMC6493668 (2019)

T1: hepatitis A virus (HAV) full particle, genotype TZ84 (HAV IA genotype) (hepatitis A virus, genotype TZ84 (HAV …))
T1 chain 1: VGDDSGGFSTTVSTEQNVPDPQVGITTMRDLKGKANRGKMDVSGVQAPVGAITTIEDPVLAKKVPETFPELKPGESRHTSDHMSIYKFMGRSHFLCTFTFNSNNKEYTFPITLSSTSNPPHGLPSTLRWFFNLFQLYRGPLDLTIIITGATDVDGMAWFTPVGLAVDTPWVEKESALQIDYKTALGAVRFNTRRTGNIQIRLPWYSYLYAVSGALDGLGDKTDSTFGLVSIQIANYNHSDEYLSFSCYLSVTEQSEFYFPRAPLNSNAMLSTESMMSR
T1 chain 2: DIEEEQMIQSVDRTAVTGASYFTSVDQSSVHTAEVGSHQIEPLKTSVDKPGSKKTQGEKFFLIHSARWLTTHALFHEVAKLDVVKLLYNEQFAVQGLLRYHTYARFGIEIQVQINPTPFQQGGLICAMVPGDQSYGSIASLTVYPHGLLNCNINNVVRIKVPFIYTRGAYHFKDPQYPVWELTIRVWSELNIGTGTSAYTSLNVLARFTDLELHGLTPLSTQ
T1 chain 3: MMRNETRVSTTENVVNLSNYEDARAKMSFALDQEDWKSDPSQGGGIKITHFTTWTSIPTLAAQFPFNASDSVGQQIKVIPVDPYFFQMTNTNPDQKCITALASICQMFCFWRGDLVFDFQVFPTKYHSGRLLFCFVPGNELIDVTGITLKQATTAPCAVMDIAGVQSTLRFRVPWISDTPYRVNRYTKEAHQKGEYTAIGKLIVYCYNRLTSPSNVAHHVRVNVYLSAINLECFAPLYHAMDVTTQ


Tests used:
[1] = molecular target: T1, hepatitis A virus (HAV) full particle, …; experiment: SPR
[2] = molecular target: T1, hepatitis A virus (HAV) full particle, …; experiment: SPR

Binder	Kd [1] [nM]	koff [2] [s⁻¹]
F6 Fab (fragment of antigen binding of the neutralizing monoclonal antibody F6) (Fab, V domains shown) VH: EVKLVESGGGLVKPGGSLKLSCAASMYNFQHYGMSWVRQTPEKRLEWVATIQTNATYTYYPDSVKGRFTISRDNARNILYLQMSSLRSGDTAMYYCARRDNIECHYYFDYWGQGTTLTVSS VL: DIVLTQSPAIMSASPGERVTMTCSAHQYVSYMHWYQQKSGTSPKRWIYDTSRLADAIPQRFSGRGSGTSYSLTISSMEAEDAATYYCQQWQSNPYTFGGGTKLEIK	2.19	0.000134
F4 Fab (fragment of antigen binding of the neutralizing monoclonal antibody F4) (Fab, V domains shown) VH: EVKLVESGGGLVKPGGSLKLSCAASLFTHNNYGMSWVRQTPEKRLEWVATINSTASYTYYPDSVKGRFTISRDNAKNTLYLQMSSLRSGDTAIYYCARKNDTFSDYYFDYWGQGTTLTVSS VL: DIVLTQSPAIMSASPGERVTMTCSAHVSTDYMHWYQQKSGTSPKRWIYDTSKLASTVPDRFSGSGSGTSYSLTISSMEAEDAATYYCQQWNNNAYTYGGGTKLEIK	5.14	0.000252
R10 Fab (fragment of antigen binding of the neutralizing monoclonal antibody R10) (Fab, V domains shown) VH: EVKLVESGGGSVKPGGSLKLSCAASGFSFSTYGMSWVRQTPEKRLEWVATISGGGGYTYYPDSVKGRFTISRDNARNILYLQMSSLRSGDTAMYYCARRVTTVAEYYFDYWGQGTTLTVSS VL: DIVLTQSPAIMSASPGEKVTMTCSASSSVSYIHWYQQKSGTSPKRWIYDTSRLAFGVPGRFSGSGSGTSYSLTISSMEAEDAATYYCQQWSSNYTFGGGTNLEIK	8.13	0.000528
F9 Fab (fragment of antigen binding of the neutralizing monoclonal antibody F9) (Fab, V domains shown) VH: EVKLVESGGGLVKPGGSLKLSCAASAFTITTYGMSWVRQTPEKRLEWVATITAGGSYTYYPDSVKGRFTISRDNAKNTLYLQMSSLRSGDTAMYYCARKVTSVAEYYFDYWGQGTTLTVSS VL: DIVLTQSPAIMSASPGEKVTMTCSATSGLSYIHWYQQKSGTSPKRWIYDTSKLAFGAPARFSGSGSGTSYSLTISSMEAEDAATYYCQQWDVNPYTFGGGTKLEIK	7.18	0.000537
F7 Fab (fragment of antigen binding of the neutralizing monoclonal antibody F7) (Fab, V domains shown) VH: EVKLVESGGGLVKPGGSLKLSCAASIHTFNCYGMSWVRQTPEKGLEWVATIDAASSYTYYPDSVKGRFTISRDNAKNTLYLQMSSLRSGDTAMYYCARRDNTTAQYYFDYWGQGTTLTVSS VL: DIVLTQSPAIMSASPGEKVTMTCSAASSVSYIHWYQQKSGTSPKRWIYDTSRLAFGVPTRFSGSGSGTSYSLTISSMEAEDAATYYCQQWSTNPYTFGGGTKLEIK	7.1	0.000743
